Test results published in PMC11096414.

Molecular target: Flag-tagged MAVS wt, Q7Z434
Assay: co-IP
Details: remark: other sources report otherwise

Flag-tagged MAVS wt, Q7Z434, sequence (Q7Z434 whole entry): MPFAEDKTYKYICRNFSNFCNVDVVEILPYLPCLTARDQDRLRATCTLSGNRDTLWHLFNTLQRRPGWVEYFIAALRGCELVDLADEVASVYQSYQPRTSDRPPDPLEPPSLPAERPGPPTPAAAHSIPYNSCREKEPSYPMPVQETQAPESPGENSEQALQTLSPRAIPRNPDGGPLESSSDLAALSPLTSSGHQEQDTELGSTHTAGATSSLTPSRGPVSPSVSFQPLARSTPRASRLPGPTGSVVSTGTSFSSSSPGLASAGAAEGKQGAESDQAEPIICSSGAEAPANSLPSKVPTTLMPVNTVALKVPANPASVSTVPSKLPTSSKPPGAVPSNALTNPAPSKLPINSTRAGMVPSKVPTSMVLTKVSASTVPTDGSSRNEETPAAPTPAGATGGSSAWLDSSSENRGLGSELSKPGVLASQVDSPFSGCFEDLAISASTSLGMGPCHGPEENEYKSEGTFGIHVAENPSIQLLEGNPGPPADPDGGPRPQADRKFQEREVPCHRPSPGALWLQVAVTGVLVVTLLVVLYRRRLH

B1: GFP-tagged TBK1, Q9UHD2 1-729 (enzyme)
chain: MQSTSNHLWLLSDILGQGATANVFRGRHKKTGDLFAIKVFNNISFLRPVDVQMREFEVLKKLNHKNIVKLFAIEEETTTRHKVLIMEFCPCGSLYTVLEEPSNAYGLPESEFLIVLRDVVGGMNHLRENGIVHRDIKPGNIMRVIGEDGQSVYKLTDFGAARELEDDEQFVSLYGTEEYLHPDMYERAVLRKDHQKKYGATVDLWSIGVTFYHAATGSLPFRPFEGPRRNKEVMYKIITGKPSGAISGVQKAENGPIDWSGDMPVSCSLSRGLQVLLTPVLANILEADQEKCWGFDQFFAETSDILHRMVIHVFSLQQMTAHKIYIHSYNTATIFHELVYKQTKIISSNQELIYEGRRLVLEPGRLAQHFPKTTEENPIFVVSREPLNTIGLIYEKISLPKVHPRYDLDGDASMAKAITGVVCYACRIASTLLLYQELMRKGIRWLIELIKDDYNETVHKKTEVVITLDFCIRNIEKTVKVYEKLMKINLEAAELGEISDIHTKLLRLSSSQGTIETSLQDIDSRLSPGGSLADAWAHQEGTHPKDRNVEKLQVLLNCMTEIYYQFKKDKAERRLAYNEEQIHKFDKQKLYYHATKAMTHFTDECVKKYEAFLNKSEEWIRKMLHLRKQLLSLTNQCFDIEEEVSKYQEYTNELQETLPQKMFTASSGIKHTMTPIYPSSNTLVEMTLGMKKLKEEMEGVVKELAENNHILERFGSLTMDGGLRNVDCL
fold reduction of the co-precipitate in the presence of 4-OI (against no 4-OI): 3.7 fold

B2: GFP-tagged RIG-I, O95786 1-925 (natural protein)
chain: MTTEQRRSLQAFQDYIRKTLDPTYILSYMAPWFREEEVQYIQAEKNNKGPMEAATLFLKFLLELQEEGWFRGFLDALDHAGYSGLYEAIESWDFKKIEKLEEYRLLLKRLQPEFKTRIIPTDIISDLSECLINQECEEILQICSTKGMMAGAEKLVECLLRSDKENWPKTLKLALEKERNKFSELWIVEKGIKDVETEDLEDKMETSDIQIFYQEDPECQNLSENSCPPSEVSDTNLYSPFKPRNYQLELALPAMKGKNTIICAPTGCGKTFVSLLICEHHLKKFPQGQKGKVVFFANQIPVYEQQKSVFSKYFERHGYRVTGISGATAENVPVEQIVENNDIIILTPQILVNNLKKGTIPSLSIFTLMIFDECHNTSKQHPYNMIMFNYLDQKLGGSSGPLPQVIGLTASVGVGDAKNTDEALDYICKLCASLDASVIATVKHNLEELEQVVYKPQKFFRKVESRISDKFKYIIAQLMRDTESLAKRICKDLENLSQIQNREFGTQKYEQWIVTVQKACMVFQMPDKDEESRICKALFLYTSHLRKYNDALIISEHARMKDALDYLKDFFSNVRAAGFDEIEQDLTQRFEEKLQELESVSRDPSNENPKLEDLCFILQEEYHLNPETITILFVKTRALVDALKNWIEGNPKLSFLKPGILTGRGKTNQNTGMTLPAQKCILDAFKASGDHNILIATSVADEGIDIAQCNLVILYEYVGNVIKMIQTRGRGRARGSKCFLLTSNAGVIEKEQINMYKEKMMNDSILRLQTWDEAVFREKILHIQTHEKFIRDSQEKPKPVPDKENKKLLCRKCKALACYTADVRVIEECHYTVLGDAFKECFVSRPHPKPKQFSSFEKRAKIFCARQNCSHDWGIHVKYKTFEIPVIKIESFVVEDIATGVQTLYSKWKDFHFEKIPFDPAEMSK
fold reduction of the co-precipitate in the presence of 4-OI (against no 4-OI): 1.6 fold
